Measured values: patent CN1977043A (CBR INST FOR BIOMED RES INC, dated 2007)

Target: IgM CM-22
Experiment: SPR (Biacore CM5), N2 10.5-120μM injected over amine-coupled IgM CM-22, steady-state fit to 1:1 Langmuir isotherm

Sequence of IgM CM-22 (chain, as listed by the source, chain 1 of 2): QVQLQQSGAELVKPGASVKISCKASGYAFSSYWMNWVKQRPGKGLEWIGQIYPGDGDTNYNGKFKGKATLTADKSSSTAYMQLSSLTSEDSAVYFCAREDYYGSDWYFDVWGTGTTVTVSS
Sequence of IgM CM-22 (chain, as listed by the source, chain 2 of 2): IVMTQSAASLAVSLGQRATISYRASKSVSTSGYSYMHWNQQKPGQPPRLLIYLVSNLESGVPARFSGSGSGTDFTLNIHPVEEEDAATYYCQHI

Kd: 123 µM
Binder: LMKNMDPLNDNV (also called 自身肽N2; N2肽) [self peptide N2]
